The values that follow come from patent CN114989291A (ZHEJIANG ANWEILUO DIAGNOSTIC TECH CO LTD, dated 2022).

Values joined by “and” are separate entries in the source; they are usually repeats but may differ in a detail not shown here. Equal values may be shown once. Read-outs that look alike come from different tables or passages of the source.

The EC50 is the concentration needed to bring the measured effect to its halfway point. Low readings indicate higher potency in that assay, high ones lower potency in that assay.

Assay [1] concerns the target 重组的RBD抗原 (SARS-CoV-2 Spike糖蛋白的RBD区域) (SARS-CoV-2, UniProt P0DTC2 319-541).
In assay [2] the target is T1, 全长SARS-CoV-2 S蛋白 (野生型, IVCAS 6.7512, GenBank ID: QHD43416.1) (SARS-CoV-2, UniProt P0DTC2 14-1273). The assay can be described thus: cell-based or functional assay.
Assay [3] concerns the target T1, 全长SARS-CoV-2 S蛋白 (野生型, IVCAS 6.7512, …). Kind of assay: cell-based or functional assay. This is another data set of the same source.
Another assay addresses SARS-CoV-2真病毒的S蛋白 (SARS-CoV-2, UniProt P0DTC2 14-1273). Kind of assay: cell-based or functional assay.

B1: 抗SARS-CoV-2全人源化单克隆抗体1B3 (antibody, V domains shown)
VH: VQLVESGGGVVQPGRSLRLSCAASGFTFSSYAMHWVRQAPGKGLEWVAVISYDGSNKYYADSVKGRFTISRDNSKNTLYLQMNSLRAEDTAVYYCAKVAGGPYYYDSSGRDWYFDLWGRGTLVTVSA
VL: DIQMTQSPSSLSASVGDRVSITCRASQSISSFLNWFQQKPGKAPNLLIYAASSLESGVPSRFSGSGSGTDFTLTISSLQPEDFATYYCQQSYSAPPTFGQGTRLEIKR
On to B1, for which the EC50 in assay [1] was 0.0134 mg/L. In addition, the “EC50, 假病毒细胞模型中和活性 (luciferase, ACE2-293T细胞)” value worked out at 3.86 mg/L in assay [2] and 0.0256 µM in assay [3]. In the assay with SARS-CoV-2真病毒的S蛋白, the “EC50, 真病毒感染的细胞模型中和活性 (Vero E6, 结晶紫细胞活率)” value was 16.4 μg/ml and 109 nM.
